Our source for the abundance fitness values is the Human Domainome abundance scans (Beltran et al. 2025).

± gives the uncertainty stated by the source.

The labels stand for the following.
B1: Chromodomain-helicase-DNA-binding protein 5, residues 411 to 463; numbered along this chain, Q8TDI0 (parent)
chain: EEDDHMEFCRVCKDGGELLCCDACPSSYHLHCLNPPLPEIPNGEWLCPRCTCP

The variants in the data set derive from B1. As to the kind of experiment: abundance fitness (aPCA) (normalised: wild type 0, dead -1); higher = more abundant; growth selection in yeast, the domain comes from the species named. Conditions: Homo sapiens.
Take K13W: the abundance fitness is -0.299 ± 0.059.

K13S: the abundance fitness was -0.309 ± 0.06.

On to K13L, for which the abundance fitness is -0.206 ± 0.047.

K13G: the abundance fitness was -0.008 ± 0.051.

Take K13H: the abundance fitness was -0.265 ± 0.074.

Take K13F: the abundance fitness is -0.546 ± 0.1.

In the case of K13I, the abundance fitness was -0.644 ± 0.22.

K13E: the abundance fitness is 0.142 ± 0.078.

Consider K13M, for which the abundance fitness was -0.18 ± 0.071.

As to K13T, the abundance fitness was -0.311 ± 0.046.

For K13R, the abundance fitness was -0.068 ± 0.062.

For the variant K13N, the abundance fitness came to 0.075 ± 0.1.

Take K13A: the abundance fitness is 0.015 ± 0.064.

Regarding K13D, the abundance fitness came out at 0.01 ± 0.051.

On to K13Y, for which the abundance fitness is -0.368 ± 0.12.

As to K13C, the abundance fitness turned out to be 0.021 ± 0.098.

For E17Q, the abundance fitness amounted to 0.032 ± 0.068.

E17T: the abundance fitness is 0.03 ± 0.055.

As for E17P, the abundance fitness is -0.239 ± 0.052.

For the variant E17N, the abundance fitness is -0.063 ± 0.061.

E17R: the abundance fitness is -0.187 ± 0.053.

On to E17G, for which the abundance fitness was -0.171 ± 0.068.

With E17A, the abundance fitness was -0.063 ± 0.043.

For the variant E17M, the abundance fitness was -0.13 ± 0.059.

Consider E17K, for which the abundance fitness stood at 0.007 ± 0.068.

For E17C, the abundance fitness is -0.187 ± 0.074.

In the case of E17H, the abundance fitness was -0.138 ± 0.041.

For the variant E17S, the abundance fitness was -0.21 ± 0.045.

In the case of E17L, the abundance fitness is -0.27 ± 0.051.

Take E17I: the abundance fitness was -0.102 ± 0.045.

For the variant E17V, the abundance fitness is -0.228 ± 0.05.

Turning to E17D, the abundance fitness was -0.276 ± 0.074.

On to E17Y, for which the abundance fitness was -0.272 ± 0.059.

With E17W, the abundance fitness is -0.458 ± 0.052.

For F8Y, the abundance fitness came out at 0.033 ± 0.088.

For F8N, the abundance fitness was determined as 0.024 ± 0.11.

With F8A, the abundance fitness was -0.017 ± 0.066.

Regarding F8K, the abundance fitness is -0.409 ± 0.12.

Regarding F8Q, the abundance fitness is -0.17 ± 0.051.

Turning to F8E, the abundance fitness is -0.135 ± 0.083.

In the case of F8V, the abundance fitness is -0.152 ± 0.076.

For F8I, the abundance fitness was -0.347 ± 0.12.

Take F8M: the abundance fitness is -0.131 ± 0.075.

Regarding F8S, the abundance fitness was -0.099 ± 0.073.

Turning to F8T, the abundance fitness was 0.023 ± 0.077.

Take F8D: the abundance fitness was -0.138 ± 0.077.

F8H: the abundance fitness is -0.163 ± 0.1.

For F8W, the abundance fitness is -0.346 ± 0.083.

With F8L, the abundance fitness was 0.015 ± 0.065.

Consider F8P, for which the abundance fitness was -0.261 ± 0.081.

As to F8G, the abundance fitness amounted to 0.033 ± 0.044.

Regarding F8R, the abundance fitness is -0.051 ± 0.045.

Take F8C: the abundance fitness is -0.242 ± 0.097.

Take C12W: the abundance fitness is -0.552 ± 0.11.

Take C12G: the abundance fitness is -0.66 ± 0.066.

For C12V, the abundance fitness is -0.828 ± 0.088.

Consider C12F, for which the abundance fitness was -0.756 ± 0.21.

Take C12P: the abundance fitness was -0.699 ± 0.1.

Regarding C12M, the abundance fitness is -0.923 ± 0.071.

On to C12N, for which the abundance fitness is -0.852 ± 0.21.

Regarding C12Q, the abundance fitness is -0.938 ± 0.19.

For the variant C12A, the abundance fitness is -0.963 ± 0.061.

Take C12T: the abundance fitness is -0.581 ± 0.099.

Take C12R: the abundance fitness is -0.783 ± 0.082.

In the case of C12K, the abundance fitness is -0.684 ± 0.12.

C12E: the abundance fitness is -0.504 ± 0.049.

Turning to C12L, the abundance fitness is -0.971 ± 0.079.

As to C12D, the abundance fitness was -0.574 ± 0.048.

C12S: the abundance fitness was -0.947 ± 0.07.

Consider C12I, for which the abundance fitness is -0.601 ± 0.095.

As for A23H, the abundance fitness amounted to 0.088 ± 0.17.

On to A23T, for which the abundance fitness was 0.08 ± 0.054.

As to A23R, the abundance fitness is -0.022 ± 0.088.

Take A23L: the abundance fitness was determined as 0.068 ± 0.069.

Regarding A23P, the abundance fitness was -0.488 ± 0.22.

As to A23G, the abundance fitness is -0.014 ± 0.088.

Turning to A23Q, the abundance fitness stood at 0.305 ± 0.13.

Take A23Y: the abundance fitness was determined as 0.193 ± 0.074.

For the variant A23D, the abundance fitness was -0.082 ± 0.12.

On to A23F, for which the abundance fitness is -0.708 ± 0.32.

In the case of A23M, the abundance fitness was -0.324 ± 0.13.

A23K: the abundance fitness worked out at 0.092 ± 0.093.

Turning to A23C, the abundance fitness was -0.018 ± 0.14.

A23W: the abundance fitness is -0.043 ± 0.072.

Take A23S: the abundance fitness amounted to 0.301 ± 0.1.

E7W: the abundance fitness is -0.247 ± 0.067.

Regarding E7V, the abundance fitness is 0.063 ± 0.064.

Turning to E7Y, the abundance fitness was -0.527 ± 0.17.

On to E7S, for which the abundance fitness is -0.215 ± 0.084.

Regarding C21D, the abundance fitness is -0.791 ± 0.1.

Turning to C21W, the abundance fitness was -0.958 ± 0.071.

Take C21L: the abundance fitness was -0.999 ± 0.071.

With C21T, the abundance fitness was -1 ± 0.14.

With C21S, the abundance fitness is -0.883 ± 0.058.

Turning to C21E, the abundance fitness was -0.873 ± 0.11.

For the variant C21G, the abundance fitness is -0.809 ± 0.067.

As for C21V, the abundance fitness is -0.932 ± 0.054.

As to C21N, the abundance fitness is -1.03 ± 0.15.

In the case of C21M, the abundance fitness was -1.08 ± 0.23.

Consider C21Q, for which the abundance fitness was -0.633 ± 0.079.

As for C21A, the abundance fitness was -0.83 ± 0.061.

As to C21P, the abundance fitness was -0.483 ± 0.086.

On to C21H, for which the abundance fitness is -0.773 ± 0.17.

For the variant C21K, the abundance fitness is -0.641 ± 0.088.

With C21R, the abundance fitness was -1.09 ± 0.099.

Turning to C21Y, the abundance fitness was -0.946 ± 0.2.

Regarding C21I, the abundance fitness is -1.13 ± 0.2.

Regarding C21F, the abundance fitness was -0.844 ± 0.15.

On to C9I, for which the abundance fitness was -1.05 ± 0.25.

For the variant C9V, the abundance fitness was -1.09 ± 0.069.

Take C9L: the abundance fitness is -0.861 ± 0.078.

Regarding C9Q, the abundance fitness was -0.771 ± 0.087.

As for C9T, the abundance fitness was -0.56 ± 0.074.

For the variant C9P, the abundance fitness is -0.94 ± 0.13.

C9Y: the abundance fitness is -0.977 ± 0.068.

On to C9K, for which the abundance fitness is -0.438 ± 0.074.

With C9G, the abundance fitness was -0.687 ± 0.068.

Consider C9N, for which the abundance fitness is -0.735 ± 0.13.

For C9D, the abundance fitness was -0.595 ± 0.1.

For the variant C9S, the abundance fitness was -0.807 ± 0.072.

With C9F, the abundance fitness was -0.715 ± 0.18.

Consider C9R, for which the abundance fitness was -0.629 ± 0.062.

In the case of C9H, the abundance fitness was -1.5 ± 0.4.

As for L19T, the abundance fitness was -0.169 ± 0.11.

Regarding L19P, the abundance fitness was -1.22 ± 0.38.

In the case of L19K, the abundance fitness is -0.361 ± 0.14.

As to L19S, the abundance fitness was -0.537 ± 0.15.

On to L19E, for which the abundance fitness is -0.346 ± 0.12.

Regarding L19W, the abundance fitness was -0.288 ± 0.089.

Take L19G: the abundance fitness is -0.571 ± 0.059.

Turning to L19V, the abundance fitness was -0.031 ± 0.077.

On to L19Y, for which the abundance fitness amounted to 0.099 ± 0.14.

In the case of L19C, the abundance fitness was -0.317 ± 0.089.

With L19F, the abundance fitness stood at 0.001 ± 0.058.

On to L19R, for which the abundance fitness is -0.078 ± 0.06.

For the variant L19I, the abundance fitness came out at 0.26 ± 0.098.

Take L19Q: the abundance fitness is -0.155 ± 0.12.

On to V11G, for which the abundance fitness was determined as 0.046 ± 0.053.

As to V11Y, the abundance fitness is -0.056 ± 0.076.

Regarding V11A, the abundance fitness is -0.276 ± 0.058.

V11I: the abundance fitness was 0.069 ± 0.061.

As to V11P, the abundance fitness was -0.795 ± 0.12.

Take V11K: the abundance fitness was 0.122 ± 0.09.

With V11N, the abundance fitness is -0.131 ± 0.15.

For V11E, the abundance fitness was 0.18 ± 0.076.

Turning to V11Q, the abundance fitness was -0.012 ± 0.1.

For the variant V11C, the abundance fitness was -0.275 ± 0.11.

For the variant V11L, the abundance fitness is -0.1 ± 0.053.

As for V11S, the abundance fitness is -0.118 ± 0.058.

On to V11F, for which the abundance fitness was -0.111 ± 0.1.

On to V11R, for which the abundance fitness was -0.113 ± 0.058.

As for V11W, the abundance fitness was -0.193 ± 0.052.

For V11H, the abundance fitness worked out at 0.033 ± 0.054.

For V11M, the abundance fitness is -0.008 ± 0.058.

For V11D, the abundance fitness came to 0.062 ± 0.081.

For G15V, the abundance fitness is -0.061 ± 0.092.

On to G15T, for which the abundance fitness was 0.036 ± 0.062.

For G15M, the abundance fitness was -0.165 ± 0.12.

For the variant G15D, the abundance fitness stood at 0.098 ± 0.095.

For the variant G15N, the abundance fitness is -0.359 ± 0.12.

Take G15W: the abundance fitness is -0.087 ± 0.09.

For the variant G15C, the abundance fitness was -0.517 ± 0.12.

G15E: the abundance fitness was -0.224 ± 0.13.

Turning to G15I, the abundance fitness was -0.112 ± 0.14.

Take G15F: the abundance fitness was 0.079 ± 0.12.

Regarding G15L, the abundance fitness is -0.151 ± 0.064.

As to G15A, the abundance fitness was determined as 0.07 ± 0.084.
